For one molecule, Kd, koff and kon results are on record in publication PMC3042367 (Biochemistry, 2010).

The experiment has as its target R831b MerB (organomercurial lyase), unliganded (Serratia marcescens (plasmid R831b), UniProt P77072 1-212). As to the kind of experiment: stopped-flow fluorescence kinetics.

Chain of R831b MerB (organomercurial lyase), unliganded (P77072 whole entry): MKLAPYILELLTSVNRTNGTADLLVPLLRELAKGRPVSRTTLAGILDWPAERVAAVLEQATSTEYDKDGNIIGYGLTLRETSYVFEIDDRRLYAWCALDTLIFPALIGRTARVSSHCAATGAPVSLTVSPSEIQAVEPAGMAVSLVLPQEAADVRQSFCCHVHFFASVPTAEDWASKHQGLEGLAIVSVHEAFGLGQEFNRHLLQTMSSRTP

B1: HgNmerA, 1:1 Hg(II) complex of pDU1358 NmerA (domain or fragment, Serratia marcescens (plasmid pDU1358), UniProt P08662 1-69, looked up)
chain: MTHLKITGMTCDSCAAHVKEALEKVPGVQSAIVSYAKGAAQLALDPGTAPDALTAAVAGLGYKAMLADA
modifications: also: 1:1 Hg(II) complex bound to Cys11 and Cys14 (CXXC motif)
In the case of B1, binding was put at a Kd of 660 µM; the koff – broadly, a measure of how fast the partners let go of each other – is 330 s⁻¹; the kon (in general, the second-order rate constant of association) came out at 500000 M⁻¹ s⁻¹.
